Values of other authors, collected in article PMC9713128.

Biological target: HBcAg (Hepatitis B virus) (UniProt P03149)
Test: solution binding assay

UniProt P03149, sequence (P03149 whole entry): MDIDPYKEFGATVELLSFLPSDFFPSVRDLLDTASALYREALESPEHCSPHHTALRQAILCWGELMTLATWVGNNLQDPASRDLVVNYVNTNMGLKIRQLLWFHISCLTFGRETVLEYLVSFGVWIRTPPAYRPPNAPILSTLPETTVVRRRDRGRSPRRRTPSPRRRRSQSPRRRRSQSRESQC

For cyclic peptide C-WSFFSNI-C, which Kd is on record?
The Kd was less than 25 nM.

Which Kd does the source give for cyclic peptide C-WPFWGPW-C here?
The Kd was less than 25 nM.
